Test results published in publication doi:10.1101/2022.06.27.497840 (bioRxiv, 2022).

Target: T1, MBP-Mlh1/MBP-Mlh2 complex (Saccharomyces cerevisiae (SK1), UniProt P38920;Q07980)
T1 sequence 1: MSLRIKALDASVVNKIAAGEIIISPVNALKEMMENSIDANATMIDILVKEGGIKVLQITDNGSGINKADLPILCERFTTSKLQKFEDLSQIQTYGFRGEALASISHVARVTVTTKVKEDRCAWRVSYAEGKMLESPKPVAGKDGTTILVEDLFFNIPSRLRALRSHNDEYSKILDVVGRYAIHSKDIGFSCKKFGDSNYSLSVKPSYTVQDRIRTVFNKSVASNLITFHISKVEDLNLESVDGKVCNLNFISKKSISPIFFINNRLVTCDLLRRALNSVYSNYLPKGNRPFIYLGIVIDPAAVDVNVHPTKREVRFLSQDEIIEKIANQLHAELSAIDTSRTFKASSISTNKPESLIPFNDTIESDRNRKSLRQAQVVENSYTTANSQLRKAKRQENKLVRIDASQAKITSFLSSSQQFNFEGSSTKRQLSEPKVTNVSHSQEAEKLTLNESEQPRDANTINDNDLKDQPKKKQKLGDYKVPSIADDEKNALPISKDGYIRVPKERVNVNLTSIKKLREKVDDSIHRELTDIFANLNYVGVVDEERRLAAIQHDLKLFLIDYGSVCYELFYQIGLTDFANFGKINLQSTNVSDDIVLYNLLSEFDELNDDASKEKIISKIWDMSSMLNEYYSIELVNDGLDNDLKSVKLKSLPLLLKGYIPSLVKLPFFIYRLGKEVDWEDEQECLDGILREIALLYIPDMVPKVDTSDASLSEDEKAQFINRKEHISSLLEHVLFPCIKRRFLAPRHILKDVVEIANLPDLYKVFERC
T1 sequence 2: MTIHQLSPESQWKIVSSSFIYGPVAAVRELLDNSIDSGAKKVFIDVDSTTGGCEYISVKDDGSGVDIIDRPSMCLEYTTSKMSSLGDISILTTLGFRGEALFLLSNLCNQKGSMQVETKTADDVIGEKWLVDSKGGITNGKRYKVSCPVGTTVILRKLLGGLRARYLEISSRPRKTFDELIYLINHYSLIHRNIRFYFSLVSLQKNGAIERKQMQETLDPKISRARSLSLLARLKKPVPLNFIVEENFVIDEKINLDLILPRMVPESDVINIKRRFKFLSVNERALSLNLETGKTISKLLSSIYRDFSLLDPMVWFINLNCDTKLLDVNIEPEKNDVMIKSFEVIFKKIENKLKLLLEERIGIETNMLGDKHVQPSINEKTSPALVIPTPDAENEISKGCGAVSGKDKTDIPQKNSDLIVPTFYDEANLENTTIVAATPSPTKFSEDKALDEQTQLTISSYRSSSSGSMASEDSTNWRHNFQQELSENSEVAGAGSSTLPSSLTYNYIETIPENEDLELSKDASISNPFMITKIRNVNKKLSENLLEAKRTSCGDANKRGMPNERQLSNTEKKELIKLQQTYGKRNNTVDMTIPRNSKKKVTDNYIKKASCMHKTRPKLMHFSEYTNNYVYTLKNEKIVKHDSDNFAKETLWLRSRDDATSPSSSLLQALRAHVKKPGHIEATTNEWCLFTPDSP
Experiment: cross-linking

binding result: binds
B1: Top3/Rmi1 complex (as used in MST, XL-MS and D-loop assays) (complex)
chain 1: MKVLCVAEKNSIAKAVSQILGGGRSTSRDSGYMYVKNYDFMFSGFPFARNGANCEVTMTSVAGHLTGIDFSHDSHGWGKCAIQELFDAPLNEIMNNNQKKIASNIKREARNADYLMIWTDCDREGEYIGWEIWQEAKRGNRLIQNDQVYRAVFSHLERQHILNAARNPSRLDMKSVHAVGTRIEIDLRAGVTFTRLLTETLRNKLRNQATMTKDGAKHRGGNKNDSQVVSYGTCQFPTLGFVVDRFERIRNFVPEEFWYIQLVVENKDNGGTTTFQWDRGHLFDRLSVLTFYETCIETAGNVAQVVDLKSKPTTKYRPLPLTTVELQKNCARYLRLNAKQSLDAAEKLYQKGFISYPRTETDTFPHAMDLKSLVEKQAQLDQLAAGGRTAWASYAASLLQPENTSNNNKFKFPRSGSHDDKAHPPIHPIVSLGPEANVSPVERRVYEYVARHFLACCSEDAKGQSMTLVLDWAVERFSASGLVVLERNFLDVYPWARWETTKQLPRLEMNALVDIAKAEMKAGTTAPPKPMTESELILLMDTNGIGTDATIAEHIDKIQVRNYVRSEKVGKETYLQPTTLGVSLVHGFEAIGLEDSFAKPFQRREMEQDLKKICEGHASKTDVVKDIVEKYRKYWHKTNACKNTLLQVYDRVKASM
chain 2: MSFSSILSQDITDDITPPAYSATLGSREQIVFRAYQNEPWLAGTASNLILDKKLVIVDRELLFQVLMVENITKSKLTQIDDIKTKLDPKKQKVDRLRSGAQGNGAKKYEVITQVDMEDDGNVADNNCAKENNSNNNSSAAKNKAVFKLTLQSKSGDVFFAINSTPISWSSCMLGSKIVILPGTVFNRGVFILKDSQVIFLGGINRVWNENRDQKFCDYLESKLQRDKQLVNGGSKKRKAND
